# Changes are numbered by the printed parent chain. Numbers in names are those of the source.
# B1: S. aureus mechanosensitive channel of large conductance (SaMscL) (natural protein, UniProt Q6G9L1 1-120, looked up)
# chain: MLKEFKEFALKGNVLDLAIAVVMGAAFNKIISSLVENIIMPLIGKIFGSVDFAKEWSFWGIKYGLFIQSVIDFIIIAFALFIFVKIANTLMKKEEAEEEAVVEENVVLLTEIRDLLREKK
# notes: MscL, large-conductance mechanosensitive channel of S. aureus, GenBank CAG43065; printed monomer mass 14.4 kDa; the printed GenBank entry holds; Pentamer in Triton X-100 and C8E5 and in vivo; tetramer in LDAO (copies would then be 4); Expressed from two vectors (pET21a, pB10) with no difference reported; also called S. aureus MscL; source: E. coli PB116 (pET21a), purified (DM extraction, Ni-NTA, …)
# B2: L10C/M91C SaMscL (natural protein)
# chain: B1 chain with L10C, M91C
# notes: also called L10C/M91C protein; source: bacterial cultures induced with 1 mM IPTG, in the cell membrane (cells lysed in sample buffer)
# Tests used:
# [1] = biological target: L10C/L89C SaMscL (S. aureus) (UniProt Q6G9L1); test: cross-linking; in vivo disulfide trapping of double-cysteine mutants in the cell membrane; cells osmotically shocked (water with 1.5 uM copper phenanthroline, 15 min, 37 C) or mock shocked; non-reducing SDS-PAGE, anti-Penta His Western blot
# [2] = biological target: the molecule itself; test: cross-linking; purified protein in LDAO (2.1 mM final); 5 ug protein with 2 mM DSS on ice for 5 min; anti-Penta His Western blot
# [3] = biological target: the molecule itself; test: SEC-MALS; SaMscL purified in LDAO, then exchanged into C8E5 and measured the following day
# [4] = biological target: the molecule itself; test: cross-linking; in vivo disulfide trapping of double-cysteine mutants in the cell membrane; cells osmotically shocked (water with 1.5 uM copper phenanthroline, 15 min, 37 C) or mock shocked; non-reducing SDS-PAGE, anti-Penta His Western blot
molecule,measurement,setting,value
L10C/L89C SaMscL (from UniProt Q6G9L1 1-120) (natural protein),stoichiometry N,[1],5
B1,stoichiometry N,[2],4
same,stoichiometry N,[3],5
B2,stoichiometry N,[4],5

# From publication PMC2998437, “S. aureus MscL Is a Pentamer In Vivo but of Variable Stoichiometries In Vitro: Implications for Detergent-Solubilized Membrane Proteins” (PLoS Biology, 2010)
